Assay results published in the supplement of paper PMC11780869.

Test system: Bacillus subtilis
Experiment: cleaved RNA product abundance (RNA/gDNA barcode ratio) relative to median wild-type variant (ratio to wild type); higher = more accumulation of the downstream cleavage product
Procedure, shortened: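 Cleaved product abundance is expressed as the RNA:gDNA barcode ratio per construct, scaled to the median construct carrying the unmutated site. The constructs were barcoded, mutagenized RNase Y cleavage-site windows in truncated aprE or tetM reporter mRNAs integrated into the B. subtilis chromosome. Cultures grew in LB at 37°C from OD600 0.0003 to 0.3 before cleaved RNA was gel-selected and barcode-sequenced.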

[1] = experiment (reporter, strain, medium): exp 2b: truncated aprE reporter, strain BJT200, cleavage site: cggR-gapA (positions -7 to +36 mutated)
[2] = experiment (reporter, strain, medium): exp 4a: truncated aprE reporter, strain BJT201 with 2% xylose (RNase J1 expressed), cleavage site: cggR-gapA (positions -7 to +36 mutated)
[3] = experiment (reporter, strain, medium): exp 8a: truncated aprE reporter, strain BJT201 with 2% xylose (RNase J1 expressed), cleavage site: glnRA (positions -5 to +31 mutated)

Row | Sequence | cleaved RNA product abundance [2] | cleaved RNA product abundance [3] | other results
1 | ACAGACGAAGGAGCCGCAAAGAAGTTATTAAGGGATTAATAATCTCTCAATATAAATATCTCTCACTTATTTAAA |  |  | cleaved RNA product abundance [1]: 0.716
2 | ACAGACGAAGGAGCCGCAAAAAAGTTATCAAGGGATGAATAATCCCTCAATATAAATATCTCTCACTTATTTAAA | 0.507 |  | 
3 | CGACATGTCCCGCTTCTTTCATTAATCCGTTAACAACTGTTTTGCTATACACATTTACCTTTTAAGAGGAGGAAT |  | 0.162 | 
4 | ACAGACGAAGGAGCCGCAAAGAAGTTATTAAAGGATGAATAATCCCTCAATATAAATATTTCTCACTTATTTAAA | 0.247 |  | 
5 | ACAGACGAAGGAGCCGCAAAGAAGTTATTAAGGGATAAATAATCTCTCAATATAAATATCTCTCACTTATTTAAA | 0.355 |  | 
6 | CGACATGTCCCGCTTCTTTCATTAATCCGTTAGCACCTGTTTTGCTATATACATTTACTTTTTAAGAGGAGGAAT |  | 0.499 | 
7 | ACAGACGAAGGAGCCGCAAAGAAGTTATTAAGGGATGAATAACCCCTCAATATATATATCTCTCACTTATTTAAA | 0.739 |  | 
8 | CGACATGTCCCGCTTCTTTCATTAATACGTTCGCAACTGTTTTGCTATATACATTTACCTTTTAAGAGGAGGAAT |  | 0.216 | 
9 | ACAGACGAAGGAGCCGCAAAGAAGCTATTAAGGGATGAATAATCCCTAAATATAAATATCTCTCACTTATTTAAA | 0.407 |  | cleaved RNA product abundance [1]: 0.346
10 | CGACATGTCCCGCTTCTTTCATTAAACCGTTAGCAACAGTTTTGCTATATACATTTACCTTTTAAGAGGAGGAAT |  | 1.01 | 
11 | CGACATGTCCCGCTTCTTTCATTAATCCGTTAGCAAGTGTTTTGCTATATACATTTAGCTTTTAAGAGGAGGAAT |  | 1.43 | 
12 | ACAGACGAAGGAGCCGCAAAGAAGTTACTAAGGGATGAACAATCCCTCAATATAAATATCTCTCACTTATTTAAA | 0.266 |  | 
13 | CGACATGTCCCGCTTCTTTCATTACGCCGTTAGCAACTGTTTTGCTATATACATTTACCTTTTAAGAGGAGGAAT |  | 1.03 | 
14 | CGACATGTCCCGCTTCTTTCATTAATCTGTTAGCAACTGTTTGGCTATATACATTTACCTTTTAAGAGGAGGAAT |  | 0.476 | 
15 | ACAGACGAAGGAGCCGCAAAGAAGTTACTAAGGGAAGAATAATCCCTCAATATAAATATCTCTCACTTATTTAAA | 0.138 |  | 
16 | ACAGACGAAGGAGCCGCAAAGAAGTTCTTAAGAGATGAATAATCCCTCAATATAAATATCTCTCACTTATTTAAA | 0.117 |  | 

Row | Sequence | cleaved RNA product abundance [2] | cleaved RNA product abundance [3] | other results
17 | ACAGACGAAGGAGCCGCAAAGAAGTTATTAAGGGATGAACAATGCCTCAATATAAATATCTCTCACTTATTTAAA | 0.136 |  | 
18 | ACAGACGAAGGAGCCGCAAAGAAGTTATTAAGGGATGAATAATCCATCAATGTAAATATCTCTCACTTATTTAAA | 0.0513 |  | cleaved RNA product abundance [1]: 0.0896
19 | CGACATGTCCCGCTTCTTTCATTAATCCGTTAGCAACTGATTTGCTATATACATATACCTTTTAAGAGGAGGAAT |  | 1 | 
20 | ACAGACGAAGGAGCCGCAAAGAAGTTATTAAGTGATGAATATTCCCTAAATATAAATATCTCTCACTTATTTAAA |  |  | cleaved RNA product abundance [1]: 0.115
21 | CGACATGTCCCGCTTCTTTCATTAATCCGTTAGCAACCGTTTTGCTTTATACATTTACCTTTTAAGAGGAGGAAT |  | 0.145 | 
22 | CGACATGTCCCGCTTCTTTCATTAATCCTTTAGCAACTGTTTTGCGATATACATTTACTTTTTAAGAGGAGGAAT |  | 0.438 | 
23 | ACAGACGAAGGAGCCGCAAATAAGTTATTAAGGCATGACTAATCCCTCAATATAAATATCTCTCACTTATTTAAA | 0.144 |  | 
24 | ACAGACGAAGGAGCCGCAAAGAAGTGATTAAGGGATGAATAATCCCTAAATATAAATATCTCTCACTTATTTAAA | 0.388 |  | 
25 | ACAGACGAAGGAGCCGCAAAGAAGTTATTAACGGATGAATAATCCCTCAATATATATATCTCTCACTTATTTAAA | 0.152 |  | cleaved RNA product abundance [1]: 0.158
26 | CGACATGTCCCGCTTCTTTCATTAATCCGTTAGCAACTGTTTTGCTAGATACATTTACCTTTTAAGAGGAGGAAT |  | 0.43 | 
27 | ACAGACGAAGGAGCCGCAAAGAACTTATTAAGGGATGAATAATCCCTCAATATAAATATCTCTCACTTATTTAAA | 0.509 |  | cleaved RNA product abundance [1]: 0.448; cleaved RNA product abundance (experiment (reporter, strain, medium): exp 6: tetM reporter, strain 168, cleavage site: cggR-gapA (positions -7 to +36 mutated)): 0.575
28 | CGACATGTCCCGCTTCTTTCATTAATCCGTTAGCAACTGTTGTGCAATATACATTTACCTTTTAAGAGGAGGAAT |  | 0.249 | 
29 | ACAGACGAAGGAGCCGCAAAGAAGTTATTAAGGGATGAAAAATCCCTCAATTTAAATATCTCTCACTTATTTAAA |  |  | cleaved RNA product abundance [1]: 0.2
30 | CGACATGTCCCGCTTCTTTCATTAAACCGTTAGCAACTGTTTTACTATATACATTTACCTTTTAAGAGGAGGAAT |  | 0.458 | 
31 | CGACATGTCCCGCTTCTTTCATTAATCCGTTATCAACTGTTATGCTATATACATTTACCTTTTAAGAGGAGGAAT |  | 0.24 | 
